Reference: US20260263521A1, “ANTI-CD200R1 ANTIBODY AND USE THEREOF” (AIMED BIO INC., priority 2023, published 2026)

Legend:
mouse CD200R1 protein = biological target: T1, mouse CD200R1 protein (Mus musculus, UniProt Q9ES57); test: ELISA binding to mouse CD200R1; settings: concentrations up to 300 nM
T1 construct: purchased R&D systems 2554-CD
T1 sequence (Q9ES57 26-326): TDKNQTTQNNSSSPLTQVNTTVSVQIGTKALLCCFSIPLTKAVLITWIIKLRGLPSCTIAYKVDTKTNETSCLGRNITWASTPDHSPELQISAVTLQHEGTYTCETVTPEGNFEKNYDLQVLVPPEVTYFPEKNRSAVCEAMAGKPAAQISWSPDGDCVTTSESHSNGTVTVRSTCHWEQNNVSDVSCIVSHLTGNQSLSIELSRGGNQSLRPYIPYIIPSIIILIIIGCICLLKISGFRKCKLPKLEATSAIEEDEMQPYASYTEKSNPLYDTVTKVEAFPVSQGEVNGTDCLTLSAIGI
Experimental: (§1) 96-well plates were coated with human CD200R1 (R&D systems, 3414-CD) and mouse CD200R1 protein (R&D systems, 2554-CD) at a concentration of 2 μg/mL at 4° C. for 16 hours and then were blocked with 3% skim milk. The result was treated with the antibodies at concentrations of 300 nM, 60 nM, 12 nM, 2.4 nM, 0.48 nM, 0.096 nM, and 0.0192 nM, and reacted at room temperature for 2 hours.
(§2) The result was washed with PBST and distilled water, the samples were bound with a goat-derived HRP-conjugated anti-human antibody (Invitrogen, 31482, Goat anti-Human IgG F(ab′)2 Secondary Antibody, HRP) for 1 hour at room temperature, and then washed again with PBST and distilled water. Color was developed with a TMB substrate solution (Thermo Scientific, 34029, 1-Step™ TMB-ELISA Ultra Substrate Solution). The color reaction was stopped with stop solution (Invitrogen, SS04, ELISA Stop Solution). The absorbance was measured at an optical density of 450 nm.

human CD200R1 = biological target: T2, human CD200R1 (Homo sapiens, UniProt Q8TD46); test: ELISA binding to human CD200R1; settings: ELISA, Example 14
T2 sequence (Q8TD46 25-348): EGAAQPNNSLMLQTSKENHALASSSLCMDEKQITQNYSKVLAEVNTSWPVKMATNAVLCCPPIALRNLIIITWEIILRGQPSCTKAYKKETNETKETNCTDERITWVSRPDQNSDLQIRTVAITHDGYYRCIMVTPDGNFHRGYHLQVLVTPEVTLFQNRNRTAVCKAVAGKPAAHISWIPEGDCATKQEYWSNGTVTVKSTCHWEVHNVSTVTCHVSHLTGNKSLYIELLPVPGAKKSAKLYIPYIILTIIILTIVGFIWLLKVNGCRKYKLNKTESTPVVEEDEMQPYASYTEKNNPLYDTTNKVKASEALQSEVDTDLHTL
Experimental: as §1, §2

[1] = system: contact dermatitis animal model; test: Contact dermatitis animal model (oxazolone); type: in vivo, C57BL/6 mice; settings: 20 mg/kg intravenously
Experimental: An in vivo contact dermatitis animal model was established to evaluate the anti-inflammatory efficacy of the anti-CD200R1 antibody. Ten-week-old female C57BL/6 mice were used for the contact dermatitis model. The animals were anesthetized and the abdominal hair thereof was removed. The following day, the shaved abdominal area was sensitized with 100 μL of 3% oxazolone in ethanol. Seven days after sensitization, P001009v1 was administered intravenously at a dose of 20 mg/kg. Four hours later, the thickness of both ears was measured. Then, both ears were sensitized with 2% oxazolone in 10 μL of ethanol. The thickness of both ears was measured again at 24 and 48 hours, and changes in ear edema thickness were recorded. Statistical analysis was performed using one-way ANOVA.

[2] = biological target: T3, CD200R1 on U937-CD200R overexpressing cells (Homo sapiens, UniProt Q8TD46); test: Cell binding assay (flow cytometry), U937-CD200R1 cells; type: cell-based; settings: serial dilution from 100 nM
T3 construct: host or cells: U937 (CRL-1593.2)
T3 sequence (Q8TD46 25-348): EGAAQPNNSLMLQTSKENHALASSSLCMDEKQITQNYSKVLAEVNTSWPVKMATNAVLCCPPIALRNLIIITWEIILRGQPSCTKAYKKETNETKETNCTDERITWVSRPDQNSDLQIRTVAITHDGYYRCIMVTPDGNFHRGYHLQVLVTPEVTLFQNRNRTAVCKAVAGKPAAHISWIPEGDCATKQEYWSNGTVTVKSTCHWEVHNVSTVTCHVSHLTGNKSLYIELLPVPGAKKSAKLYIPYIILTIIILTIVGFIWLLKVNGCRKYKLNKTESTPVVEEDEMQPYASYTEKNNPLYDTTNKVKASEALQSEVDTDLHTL
Experimental: Binding ability was determined in HH, an endogenous T cell line with high CD200R1 expression, and two additional overexpressing cell lines: U937-CD200R overexpressing cells, generated by intranuclear injection of human CD200R1 CDNA into the monocytic cell line U937 (CRL-1593.2) (Source: UMC Utrecht, the Netherlands) and Jurkat-CD200R overexpressing cells, were also cells engineered using a similar method.
All cell lines were maintained in RPMI 1640 medium supplemented with 10% heat-inactivated FBS and 1% penicillin/streptomycin (P/S) and cell binding was determined in the same manner as in Example 12. Two additional wells were treated with 10 μl of mouse IgG1K (BD, #555751) and 5 μl of commercial CD200R1 antibody (Biolegend, #329308) to determine CD200R1 expression on the cell line surface for cell quality control.
Specific binding ability was determined using P001009 WT and antibody-optimized mutants, P001009v1, P001009v2, P001009v3, and P001009v4. The antibodies were serially diluted 10-fold from a maximum concentration of 100 nM to 10 nM, 1 nM, […], and were added to the pre-seeded cells. […] Using GraphPad Prism software, the EC50 was determined using a nonlinear graph model of log (agonist) vs. response-variable slope, as shown in Table 32.

[3] = system: Th1/Th2 cytokines in nasal polyp patient specimens; test: Ex vivo cytokine inhibition in nasal polyp patient specimens (CBA); type: cell-based, human; settings: antibody drugs 100 nM; three DUPIXENT-resistant samples of 10; Th2 cytokines IL-5, IL-4
Experimental: The specimens were finely chopped and minced, and then additionally processed twice using the m_lung_02 protocol on a gentleMACS (Miltenyi Biotec) to obtain tissue fragments. After centrifugation at 1500 rpm for 3 minutes to ensure that all tissues formed a pellet, RPMI media+10% FBS was aliquoted in the pellet at a 1:3 ratio. The pellet was thoroughly mixed with the medium and dispensed into a 96-well u-bottom plate, 100 μl per well, in triplicate for each drug. To establish the screening assay, results were obtained first using dexamethasone (a steroid-based positive control drug), followed by treatment with the anti-CD200R1 antibody (P001009v1) and other drugs used for the corresponding disease. All antibody-based drugs were treated at 100 nM, while steroid drugs such as dexamethasone were treated at 20 μM.
After drug treatment, the cells were incubated at 37° C. for 1 hour. To increase overall cytokine levels, 4 μl of a 10-fold diluted cell stimulation cocktail 500× (Invitrogen #00-4970-03) was added on each well and mixed. After reaction for 24 hours at 37° C., the supernatant was collected by centrifugation. Using the human Th1/Th2 cytokine cytometric bead array (CBA) kit (BD, #550749), cytokine levels in the supernatant were measured and the degree of drug responsiveness of each sample was determined.

B1: P001009: phage display anti-CD200R1 clone; VH SEQ ID NO: 79, VL SEQ ID NO: 94 (antibody, V domains shown)
VH: EVQLLESGGGLVQPGGSLRLSCAASGFTFSSYDMSWVRQAPGKGLEWVSWISHGGGSIYYADSVKGRFTISRDNSKNTLYLQMNSLRAEDTAVYYCARDAPAYSAPLFDYWGQGTLVTVSS
VL: QSVLTQPPSASGTPGQRVTISCSGSSSNIGNNAVNWYQQLPGTAPKLLIYYDSNRPSGVPDRFSGSKSGTSASLAISGLRSEDEADYYCAAWDDSLSGYVFGGGTKLTVL
Mouse CD200R1 protein
  binding ability to mouse CD200R1: very weak

B2: P001009v1: P001009 variant, LC S52 and LC S94 substituted with K and R; VH SEQ ID NO: 79 (antibody, V domains shown)
VH: EVQLLESGGGLVQPGGSLRLSCAASGFTFSSYDMSWVRQAPGKGLEWVSWISHGGGSIYYADSVKGRFTISRDNSKNTLYLQMNSLRAEDTAVYYCARDAPAYSAPLFDYWGQGTLVTVSS
VL: QSVLTQPPSASGTPGQRVTISCSGSSSNIGNNAVNWYQQLPGTAPKLLIYYDKNRPSGVPDRFSGSKSGTSASLAISGLRSEDEADYYCAAWDDRLSGYVFGGGTKLTVL
Human CD200R1
  binding ability to human CD200R1 compared to parent: improved
[1]; 48 hours
  anti-inflammatory efficacy after 48 hours: maintained
[1]; compared to control group
  anti-inflammatory response (ear edema thickness): significant anti-inflammatory response
[2]
  binding ability to U937-CD200R1: exhibited binding ability
[3]
  cytokine suppression in nasal polyp patient samples: superior cytokine suppression
